Data taken from US20260274976A1 (BIO THERA SOLUTIONS, published 2026).

What was measured:
[1] = molecular target: T1, human OX40 on PG-Jurkat-hOX40-NF-κB cells (human, UniProt P43489 29-277); experiment: flow cytometry competition against OX40L-mFc on PG-Jurkat-OX40-NF-κB cells; reference is antibody KHK4083
T1 construct: whole, on cells; Jurkat cells overexpressing human OX40 that also carry the pGL6-NFκB-luc reporter; also called TNFRSF4; ACT35
T1 sequence (looked up): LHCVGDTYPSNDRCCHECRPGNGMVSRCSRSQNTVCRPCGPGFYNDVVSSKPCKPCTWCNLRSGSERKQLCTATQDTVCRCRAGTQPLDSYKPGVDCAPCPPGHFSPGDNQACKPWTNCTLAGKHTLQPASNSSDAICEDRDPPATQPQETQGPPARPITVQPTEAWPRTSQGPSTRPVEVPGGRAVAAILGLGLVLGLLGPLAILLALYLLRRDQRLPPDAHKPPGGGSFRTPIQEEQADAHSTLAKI
Method: PG-Jurkat-OX40-NF-κB cells were resuspended in 1×PBS to achieve a density of 1×10⁷ cells/mL. […] PG-Jurkat-OX40-NF-κB cells were plated in sample wells, control wells, and blank wells at 50 μL/well, and the cell count was 5×10⁵ cells/well at this point. Antibody diluents at different concentrations were added to sample wells at 50 μL/well, and the mixture was mixed well. 50 μL of 1×PBS was added to control wells and blank wells. The 96-well V-bottom plate was incubated in a refrigerator at 4° C. for 5 min. […] After the incubation was complete, the 96-well V-bottom plate was taken out. The diluted ligand solution was added to sample wells and control wells at 50 μL/well as soon as possible, and the mixture was mixed well by pipetting. […] The 96-well V-bottom plate was incubated in a refrigerator at 4° C. for 50 min. The plate was washed with 1×PBS, and the supernatant was removed for further incubation.
Anti-mFc APC (Bioss, Cat. No.: BJ01138707) was diluted with 1×PBS at a ratio of 1:800, and 100 μL of the diluted anti-mFc APC was added to each well except for blank wells to resuspend the cells. The plate was incubated in the dark in a refrigerator at 4° C. for 30 min. After the incubation, the cells were washed with 1×PBS and finally resuspended in 1×PBS at 200 μL/well for flow cytometry analysis.

[2] = molecular target: T1, human OX40 on PG-Jurkat-hOX40-NF-κB …; experiment: cell-based or functional assay

B1: antibody M-KF (antibody, human IgG1, kappa, V domains shown)
VH: QVQLVESGGGVVQPGESLRLSCAASGFTFSSYGMHWVRQAPGKGLEWVAVIWEDGSNQYYADSVKGRFTISRDNSKNTLYLQMNSLRAEDTAVYYCAKDNQDTSPDVGIDYWGQGTLVTVSS
VL: DIQMTQSPSSLSASVGDRVTITCRASQNISPFLNWYQQKPGKAPKLLIYAAVGLQSGVPSRFSGSGSGTDFTLTISSLQPEDFATYYCQQYTDYPLTFGGGTKVEIKR
notes: also called anti-OX40 antibody
fold lower IC50 than antibody KHK4083 [1]: 2.8 times
fold lower IC50 than antibody KHK4083 in blocking OX40L-mFc activation of OX40 signals (NF-κB luciferase reporter) [2]: 4.8 times
